In patent publication US20070202552A1 (Genentech, published 2007) one finds ELISA signal and IC50 data, which are given here for 29 molecules.

The labels stand for the following.
B1: G58 (Fab, V domains shown)
VH: EVQLVESGGGLVQPGGSLRLSCAASGFYISYSSIHWVRQAPGKGLEWVASISPYSGYTYYADSVKGRFTISADTSKNTAYLQMNSLRAEDTAVYYCARSSYSYYYYSYALDYWGQGTLVTVSS
VL: DIQMTQSPSSLSASVGDRVTITCRASQDVNTAVAWYQQKPGKAPKLLIYSASSLYSGVPSRFSGSRSGTDFTLTISSLQPEDFATYYCQQSSSSPSTFGQGTKVEIK
B2: G30 (Fab, V domains shown)
VH: EVQLVESGGGLVQPGGSLRLSCAASGFSIWWSWIHWVRQAPGKGLEWVASISPSSGWTSYADSVKGRFTISADTSKNTAYLQMNSLRAEDTAVYYCARWWSSALDYWGQGTLVTVSS
VL: B1 VL with S92W, S93W, S94W
B3: G34 (Fab, V domains shown)
VH: B2 VH with L104F
VL: B1 VL with S92W, S93W, S94W
B4: B9 (Fab, V domains shown)
VH: B2 VH with W30Y, W31Y, W33Y, S52Y, W57Y, L104F
VL: B1 VL with S92Y, S93Y
B5: B25 (Fab, V domains shown)
VH: EVQLVESGGGLVQPGGSLRLSCAASGFSISYSSIHWVRQAPGKGLEWVASIYPYYGYTYYADSVKGRFTISADTSKNTAYLQMNSLRAEDTAVYYCARFSFSSSSFAMDYWGQGTLVTVSS
VL: B1 VL with S91Y, S93Y, S94Y, S96Y
B6: B26 (Fab, V domains shown)
VH: B5 VH with M108I
VL: B1 VL with S91Y, S94Y, S96Y
B7: B16 (Fab, V domains shown)
VH: B2 VH with W30S, W31Y, W33Y, S52Y, S54Y, W57Y, L104F
VL: B1 VL with S91Y, S92Y, S93Y, S94Y
B8: B21 (Fab, V domains shown)
VH: B2 VH with W30Y, W31S, W33Y, S52Y, S54Y, W57Y, W100S, A103G, L104F
VL: B1 VL with S91Y, S92Y, S93Y
B9: B10 (Fab, V domains shown)
VH: B2 VH with W30Y, W31Y, W33Y, S52Y, W57Y, A103G, L104F
VL: B1 VL with S92Y, S93Y
B10: B23 (Fab, V domains shown)
VH: B2 VH with S28Y, W30S, W31Y, W33Y, S52Y, S54Y, W57Y
VL: B1 VL with S92Y, S93Y
B11: B1 (Fab, V domains shown)
VH: EVQLVESGGGLVQPGGSLRLSCAASGFYISSSYIHWVRQAPGKGLEWVASIYPYSGYTSYADSVKGRFTISADTSKNTAYLQMNSLRAEDTAVYYCARYYSYAFDYWGQGTLVTVSS
VL: B1 VL with S92Y, S93Y
B12: B22 (Fab, V domains shown)
VH: B11 VH with Y28S, Y99W, Y100W, Y102S, F104M
VL: B1 VL with S92Y, S93Y, S94Y
B13: B20 (Fab, V domains shown)
VH: B11 VH with Y28S, Y99W, Y100W, Y102S, F104L
VL: B1 VL with S92Y, S93Y
B14: B18 (Fab, V domains shown)
VH: B11 VH with Y28S, Y99W, Y100W, Y102S
VL: B1 VL with S91Y, S92Y, S93Y
B15: B24 (Fab, V domains shown)
VH: B2 VH with W30S, W31Y, W33Y, S52Y, S54Y, W57Y
VL: B1 VL with S92Y, S93Y
B16: B12 (Fab, V domains shown)
VH: B11 VH with Y28S, S31Y, Y99W, Y100W, Y102W
VL: B1 VL with S91Y, S92Y, S93Y
B17: B17 (Fab, V domains shown)
VH: B11 VH with S30Y, Y99W, Y100W, Y102S, A103G
VL: B1 VL with S92Y, S93Y, S94Y
B18: B15 (Fab, V domains shown)
VH: B11 VH with Y28S, Y99W, Y100W, Y102S, F104L
VL: B1 VL with S92Y, S93Y
B19: B14 (Fab, V domains shown)
VH: B2 VH with W30Y, W31Y, W33Y, S52Y, W57Y, L104F
VL: B1 VL with S91Y, S92Y, S93Y, S94Y, S96Y
B20: B13 (Fab, V domains shown)
VH: B2 VH with W30Y, W31Y, W33Y, S52Y, W57Y, L104F
VL: B1 VL with S92Y, S93Y, S94Y
B21: G60 (Fab, V domains shown)
VH: EVQLVESGGGLVQPGGSLRLSCAASGFSIYYSSIHWVRQAPGKGLEWVASIYPYSGSTYYADSVKGRFTISADTSKNTAYLQMNSLRAEDTAVYYCARYYSSYSSSSSYYYYAFDYWGQGTLVTVSS
VL: B1 VL with S91Y, S92Y, S96Y
B22: G41 (Fab, V domains shown)
VH: EVQLVESGGGLVQPGGSLRLSCAASGFWIWSSSIHWVRQAPGKGLEWVAWISPSSGSTWYADSVKGRFTISADTSKNTAYLQMNSLRAEDTAVYYCARSSWSSWSSALDYWGQGTLVTVSS
VL: B1 VL with S91W, S94W
B23: G53 (Fab, V domains shown)
VH: B11 VH with Y28S, Y102S
VL: B1 VL with S92Y, S93Y, S94Y
B24: G61 (Fab, V domains shown)
VH: EVQLVESGGGLVQPGGSLRLSCAASGFSIYYSSIHWVRQAPGKGLEWVASIYPSSGSTYYADSVKGRFTISADTSKNTAYLQMNSLRAEDTAVYYCARYYSSSSSYSSSYYYYAFDYWGQGTLVTVSS
VL: B1 VL with S91Y, S92Y, S96Y
B25: G42 (Fab, V domains shown)
VH: B22 VH
VL: B1 VL with S91W, S94W
B26: G59 (Fab, V domains shown)
VH: EVQLVESGGGLVQPGGSLRLSCAASGFYISSSSIHWVRQAPGKGLEWVAYISPSSGYTYYADSVKGRFTISADTSKNTAYLQMNSLRAEDTAVYYCARYYSSYYSYYSYALDYWGQGTLVTVSS
VL: B1 VL with S92Y, S94Y, S96Y
B27: G55 (Fab, V domains shown)
VH: B11 VH with Y28S, S30Y
VL: B1 VL with S92Y, S93Y, S94Y
B28: G56 (Fab, V domains shown)
VH: B11 VH with F104L
VL: B1 VL with S92Y, S93Y
B29: G33 (Fab, V domains shown)
VH: B2 VH with W31S
VL: B1 VL with S91W, S92W, S93W, S94W

Numbering of substitutions follows the chain as printed.

The first test deals with human IGF-1 (human) (UniProt P05019). In words: specificity phage ELISA.
For the molecule B1, the ELISA signal at 450 nm is 0.36.

Regarding B2, the ELISA signal at 450 nm worked out at 0.29.

The molecule B3 came in with an ELISA signal at 450 nm of 0.35.

In the next test the target is T1, human HER-2 extracellular domain (HER-2 ECD) (human, UniProt P04626 23-646).
T1 construct: range 23-646; also called erbB2; HER2 protein
Briefly: competitive Fab-phage ELISA.
As to B4, the IC50 worked out at 0.72 nM.

B5: the IC50 stood at 70.4 nM.

B6 returned an IC50 of more than 100 nM.

The molecule B7 had an IC50 of 1.77 nM.

In the case of B8, the IC50 turned out to be 1.64 nM.

On to B9, for which the IC50 amounted to 3.76 nM.

For the molecule B10, the IC50 was found to be 1.46 nM.

Take B11: the IC50 was 6.28 nM.

In turn, B12 displayed an IC50 of 2.72 nM.

Consider B13, for which the IC50 came out at 1.56 nM.

In turn, B14 registered an IC50 of 0.93 nM.

On to B15, for which the IC50 worked out at 2.03 nM.

As for B16, the IC50 was found to be 6.66 nM.

For the molecule B17, the IC50 was determined as 5.76 nM.

B18: the IC50 turned out to be 1.75 nM.

Molecule B19 gave an IC50 of 1.36 nM.

Molecule B20 gave an IC50 of 1.1 nM. The IC50 values of the last two molecules are within 1.5-fold of each other.

The next test concerns the target T1, human HER-2 extracellular domain (HER-2 …). In words: competitive Fab-phage ELISA. This is another data set of the same source.
B21 yielded an IC50 of 79.8 nM.

As for B22, the IC50 was found to be 51 nM.

In the case of B23, the IC50 was found to be 9.75 nM. This IC50 lies about 5.2-fold lower than the previous one.

Take B24: the IC50 worked out at 145 nM.

Consider B25, for which the IC50 was 43 nM.

In the case of B26, the IC50 worked out at 6.8 nM.

B1 displayed an IC50 of 15.1 nM.

Regarding B2, the IC50 was 1.26 nM. This IC50 is about 12-fold lower than that of the molecule before.

Consider B27, for which the half-maximal inhibitory concentration (IC50) was determined as 6.52 nM.

On to B28, for which the IC50 turned out to be 7.13 nM.

Take B3: the IC50 stood at 1.06 nM. Against the preceding molecule, the IC50 is about 6.7-fold lower.

Take B29: the IC50 stood at 1.7 nM. Compared with the last molecule, the IC50 is about 1.6-fold higher.
